{"source": "paper PMC2676678", "conditions_in_all_cases": "holding potential -50 mV; Na+ medium (about 96 mM Na+); Hill coefficient about 1", "key": {"[1]": {"substrate": "O=C(O)[C@H]1CCCN1", "assay": "cells, lysate or membranes"}, "[2]": {"substrate": "N[C@H](CO)C(=O)O", "assay": "cells, lysate or membranes"}, "[3]": {"substrate": "CC(C)C[C@@H](N)C(=O)O", "assay": "cells, lysate or membranes"}, "[4]": {"substrate": "N[C@@H](CO)C(=O)O", "assay": "cells, lysate or membranes"}, "[5]": {"substrate": "CC(C)[C@@H](N)C(=O)O", "assay": "cells, lysate or membranes"}, "[6]": {"substrate": "CC(C)C[C@H](N)C(=O)O", "assay": "cells, lysate or membranes"}, "[7]": {"substrate": "C[C@H](N)C(=O)O", "assay": "cells, lysate or membranes"}, "[8]": {"substrate": "CC[C@H](C)[C@H](N)C(=O)O", "assay": "cells, lysate or membranes"}, "[9]": {"substrate": "CC(C)[C@H](N)C(=O)O", "assay": "cells, lysate or membranes"}, "[10]": {"substrate": "N[C@H](Cc1ccccc1)C(=O)O", "assay": "cells, lysate or membranes"}, "[11]": {"substrate": "O=C(O)[C@@H]1CCCN1", "assay": "cells, lysate or membranes"}, "[12]": {"substrate": "N[C@@H](Cc1ccccc1)C(=O)O", "assay_type": "cell-based, Drosophila melanogaster"}, "[13]": {"substrate": "CSCC[C@H](N)C(=O)O", "assay_type": "cell-based, Drosophila melanogaster"}, "[14]": {"substrate": "N[C@@H](Cc1ccc(O)cc1)C(=O)O", "assay_type": "cell-based, Drosophila melanogaster"}, "[15]": {"substrate": "N[C@H](CS)C(=O)O", "assay_type": "cell-based, Drosophila melanogaster"}, "[16]": {"substrate": "N[C@@H](Cc1c[nH]cn1)C(=O)O", "assay_type": "cell-based, Drosophila melanogaster"}, "[17]": {"substrate": "N[C@H](Cc1ccc(O)cc1)C(=O)O", "assay_type": "cell-based, Drosophila melanogaster"}, "[18]": {"substrate": "N[C@@H](Cc1ccc(O)c(O)c1)C(=O)O", "assay_type": "cell-based, Drosophila melanogaster"}, "[19]": {"substrate": "CSCC[C@@H](N)C(=O)O", "assay_type": "cell-based, Drosophila melanogaster"}, "[20]": {"substrate": "N[C@@H](CS)C(=O)O", "assay_type": "cell-based, Drosophila melanogaster"}}}
{"protein": "DmNAT1 (Drosophila melanogaster) (protein) MELKGVQPSNGSSNGSGNGATNAASTEKTDAEKPTAERTNWGNGLEFLMSCISVSVGLGNVWRFPFTAYENGGGAFLIPYIIVLFLIGKPMYYLEMIMGQFTSQGTVKIWSVVPGFVGVGYGQAFGTICIISYYSSLLALTLYYLFVSFQSELPWSYCRDEWTNCVNSRPQEYVDNLLTGVSLANESARNLSGIVANDETEKLQSSSELYFLNVVIKEKLDISDGVGDPDWKLTLALFVAWVVIFLVIMRGVKSSGKAAYFLALFPYVVLFVLLIRAVTLEGARDGILFFLEPQWGELLNPTVWKEAVVQCFFSLAVGSGPIIMFASYNRFDHGIYRDAMIVTTLDTLTSLLGGITIFAILGNLAHNLQIENIRDVVRSGTGLAFISYPDAISKFQAVPQLFSVLFFFMLFVLGIGSIVALQSTIVTIICDQFKGWKYWKVALTTSVCGFLMGLVYVTPGGQWILTLVDFYGGTYVVFILAIFELAGIVWVYGLQNFCDDIEFMCNRRVSLYWRVCWSFFTPVMMIIIFIYSMVTIEPIKYSELYFPEAANIAGWLLFAIGAAQFPLWGLWYISRHPQGTYWKSLKASLKPSDRWGPANPEIRREWVIFKNQKAAQRATQKDTSKLGFFWRKVANFCGSNK", "values": [{"measurement": "K0.5", "setting": "[1]", "value": "142.4 ± 38.5", "unit": "µM"}, {"measurement": "K0.5", "setting": "[2]", "value": "128.1 ± 21.3", "unit": "µM"}, {"measurement": "K0.5", "setting": "[3]", "value": "92.2 ± 34.8", "unit": "µM"}, {"measurement": "K0.5", "setting": "[4]", "value": "119.7 ± 18.6", "unit": "µM"}, {"measurement": "K0.5", "setting": "[5]", "value": "170.2 ± 38.3", "unit": "µM"}, {"measurement": "K0.5", "setting": "[6]", "value": "126.2 ± 39.8", "unit": "µM"}, {"measurement": "K0.5", "setting": "[7]", "value": "255.6 ± 76.8", "unit": "µM"}, {"measurement": "K0.5", "setting": "[8]", "value": "130.1 ± 37.5", "unit": "µM"}, {"measurement": "K0.5", "setting": "[9]", "value": "96.8 ± 20.2", "unit": "µM"}, {"measurement": "K0.5", "setting": "[10]", "value": "55.2 ± 10.3", "unit": "µM"}, {"measurement": "K0.5", "setting": "[11]", "value": "127.6 ± 44.9", "unit": "µM"}, {"measurement": "K0.5", "setting": "[12]", "value": "58.3 ± 5.3", "unit": "µM"}, {"measurement": "K0.5", "setting": "[13]", "value": "39.8 ± 12.7", "unit": "µM"}, {"measurement": "K0.5", "setting": "[14]", "value": "96.8 ± 17.9", "unit": "µM"}, {"measurement": "K0.5", "setting": "[15]", "value": "141.0 ± 28.6", "unit": "µM"}, {"measurement": "K0.5", "setting": "[16]", "value": "188.5 ± 37.9", "unit": "µM"}, {"measurement": "K0.5", "setting": "[17]", "value": "64.3 ± 15.3", "unit": "µM"}, {"measurement": "K0.5", "setting": "[18]", "value": "242.3 ± 57.9", "unit": "µM"}, {"measurement": "K0.5", "setting": "[19]", "value": "24.7 ± 9.9", "unit": "µM"}, {"measurement": "K0.5", "setting": "[20]", "value": "199.1 ± 18.8", "unit": "µM"}]}
